Where “and” joins values, the source holds several entries; their conditions need not be identical. Identical values can stand only once.
Key:
[1] = T50 after 30 min (T50^30) of C1-AmDH; type: physicochemical
Method: The T50 (after 30 min—T50^30) was also determined for the C1-AmDH. The T50^30 value was determined to be dependent on the buffer, in PBS, the enzyme was staple for 30 min at 50 C, at 60 C an beyond the enzyme deactivated within the timescale of the experiment. In the presence of 4M ammonium formate buffer we found the T50^30 value was determined to be at 70 C.

[2] = C1-AmDH amine activity measured photometrically; type: biochemical
Method: Activities were also measured photometrically with 100 mM (+/−) methylhenzylamine (0.58 U/mg) as well as 100 mM (R)-methylbenzylamine. (0.98 U/mg), 50 mM (R,S)-adamanylethlamine (0.04 U/mg) and determined the enantioselectivity for this enzyme to be (R).

[3] = Substrate conversion using C1-AmDH and cb-FDH, chiral GC; type: biochemical
Method: Product formation was characterized for two substrates. The test assay utilized the C1-AmDH in 24 h conversion at 40° C. with cofactor regeneration in a biphasic solvent system with heptane as the organic layer and 5 M ammonium formate as the aqueous layer. Conversions were also carried out at 50° C., which is the upper limit for the cofactor regeneration enzyme FDH.
This is not a quantitative evaluation, since amines are more water soluble than their ketone counterparts and only the organic layer was used for chiral gas chromatography (GC). The peaks were compared to the corresponding standard amines and both determined to be R-specific (FIGS. 24A and 24B).

[4] = C1-AmDH kinetic values; type: biochemical; details: 60° C.
Method: (§1) The values for acetophenone, pFPA; NADH and NH3 were determined and are summarized in Table XX, all measured at 60° C.

[5] = C1-AmDH amination at 60° C. in 4 M ammonium formate buffer; type: biochemical
Method: (§2) All ketone substrates for the amination direction were measured at 20 mM and dissolved at 60° C. in 4 M ammonium formate buffer. Enzyme specificity was measured at 60° C. for 5 min. with NADH as the cofactor at 340 nm.
as §1

[6] = as above; type: biochemical; details: 20 mM
Method: as §2

[7] = Temperature vs activity profile for C1-AmDH; type: biochemical
Method: The temperature activity profile was determined over a wide range until the limits of the instrument were reached. […] In contrast it is barely active between 20-30° C., so all measurements for activity were determined routinely at 60° C. Product conversions were done at 40° C. and 50° C., due to the temperature limits for regeneration enzyme, FDH. Temperature activity profiles were determined for pFPA and acetophenone (FIGS. 22A and 22B).

B1: C1-AmDH: chimeric AmDH: F-AmDH substrate binding domain with L-AmDH NAD-binding domain, SEQ ID NO:20 (protein)
chain: SLVEKTSIIKDFTLFEKMSEHEQVVFCNDPATGLRAIIAIHDTTLGPALGGCRMQPYNSVEEALEDALRLSKGMTYSCAASDVDFGGGKAVIIGDPQKDKSPELFRAFGQFVDSLGGRFYTGTDMGTNMEDFIHAMKETNCIVGVPEAYGSSGNPSPATAYGVYRGMKAAAKEAFGSDSLEGKVVAVQGVGNVAYHLCRHLHEEGAKLIVTDINKEAVARAVEEFGAKAVDPNDIYGVECDIFAPCALGGIINDQTIPQLKAKVIAGSALNQLKEPRHGDMIHEMGIVYAPDYVINAGGCINVADELYGYNRERAMKKIEQIYDNIEKVFAIAKRDNIPTYVAADRMAEERIETMRKARSQFLQNGHHILSRRRAR
[1]; 4M ammonium formate buffer, 30 min
  T50^30 value: 70 C
[1]; in PBS
  temperature at which stable for 30 min: 50 C
[2]
  enantioselectivity: (R)
[2]; 50 mM
  activity, (R,S)-adamanylethlamine: 0.04 U/mg
[2]; 100 mM
  activity, (+/−) methylhenzylamine: 0.58 U/mg
  activity, (R)-methylbenzylamine: 0.98 U/mg
[3]; 24 h, 40° C., heptane / 5 M ammonium formate
  product formation from methylcyclohexanone: no product
[3]; methylbenzylamine and p-fluorophenylproplyamin, chiral GC, organic layer
  enantiospecificity of product amines: R-specific
[4]
  kcat, NADH: 0.92 s⁻¹
  kcat, NH3: 1.09 s⁻¹
[4]; read-out: KM, NADH
  Km: 40 µM
[5]
  kcat, Acetophenone: 0.24 s⁻¹
  kcat, pFPA: 1.24 s^−1
[5]; 20 mM, 4 M ammonium formate
  Acetophenone, U/mg: 0.3 U/mg and 0.3019 U/mg
  Acetophenone, U/ml: 1.63 U/ml
  pFPA, U/mg: 1.7 U/mg and 1.725 U/mg
  pFPA, U/ml: 13.8 U/ml
[5]; read-out: KM, Acetophenone
  Km: 5200 µM
[5]; read-out: KM, pFPA
  Km: 1100 µM
[6]
  1,3-phenylbutanedione, U/mg: 0.06 U/mg
  1,3-phenylbutanedione, U/ml: 0.3 U/ml
  3-methyl-1-phenylbutanone, U/mg: 0.03 U/mg
  3-methyl-1-phenylbutanone, U/ml: 0.16 U/ml
  3-oxo-phenylbutyricacid ethylester, U/mg: 0 U/mg
  3-oxo-phenylbutyricacid ethylester, U/ml: 0 U/ml
  Adamantylmethylketone, U/mg: 0.07 U/mg
  Adamantylmethylketone, U/ml: 0 U/ml
  Benzophenone, U/mg: 0 U/mg
  Benzophenone, U/ml: 0 U/ml
  a-tetralone, U/mg: 0.1 U/mg and 0.1074 U/mg
  a-tetralone, U/ml: 0.58 U/ml
  b-tetralone, U/mg: 0 U/mg
  b-tetralone, U/ml: 0 U/ml
  dibenzylketone, U/ml: 1.39 U/ml
  pinacolone, U/mg: 0.1333 U/mg
  pinacolone, U/ml: 0.72 U/ml
[7]
  temperature activity profile: did not show any decline of activity up to 80 °C

— patent publication US8835136B2, “Engineered amine dehydrogenases and methods of use thereof” (Georgia Tech Research Corporation, priority 2012, dated 2014)
